According to patent US20230272069A1 (INSTITUTE OF HEMATOLOGY AND BLOOD DISEASES HOSPITAL CHINESE …, published 2023):

Columns and labels:
CD19 antigen molecule = target: T1, CD19 antigen molecule (human, UniProt P15391 20-556); test: cell-based or functional assay
T1 sequence (looked up): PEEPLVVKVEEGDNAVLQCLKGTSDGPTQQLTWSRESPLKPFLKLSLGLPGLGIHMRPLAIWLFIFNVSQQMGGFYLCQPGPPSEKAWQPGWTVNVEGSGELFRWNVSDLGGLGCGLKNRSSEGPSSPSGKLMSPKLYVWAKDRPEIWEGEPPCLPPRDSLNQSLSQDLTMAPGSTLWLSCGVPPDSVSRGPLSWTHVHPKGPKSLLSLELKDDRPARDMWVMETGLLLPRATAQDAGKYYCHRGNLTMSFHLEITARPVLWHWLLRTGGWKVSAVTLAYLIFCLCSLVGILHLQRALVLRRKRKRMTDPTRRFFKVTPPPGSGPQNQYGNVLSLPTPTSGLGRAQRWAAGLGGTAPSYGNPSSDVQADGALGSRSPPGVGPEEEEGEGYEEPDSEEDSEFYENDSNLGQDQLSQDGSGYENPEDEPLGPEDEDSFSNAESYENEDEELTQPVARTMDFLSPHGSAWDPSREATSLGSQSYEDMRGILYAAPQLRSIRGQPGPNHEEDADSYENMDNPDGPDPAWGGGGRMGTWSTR

CD22 antigen molecule = target: T2, CD22 antigen molecule (human, UniProt P20273 20-847); test: cell-based or functional assay
T2 sequence (looked up): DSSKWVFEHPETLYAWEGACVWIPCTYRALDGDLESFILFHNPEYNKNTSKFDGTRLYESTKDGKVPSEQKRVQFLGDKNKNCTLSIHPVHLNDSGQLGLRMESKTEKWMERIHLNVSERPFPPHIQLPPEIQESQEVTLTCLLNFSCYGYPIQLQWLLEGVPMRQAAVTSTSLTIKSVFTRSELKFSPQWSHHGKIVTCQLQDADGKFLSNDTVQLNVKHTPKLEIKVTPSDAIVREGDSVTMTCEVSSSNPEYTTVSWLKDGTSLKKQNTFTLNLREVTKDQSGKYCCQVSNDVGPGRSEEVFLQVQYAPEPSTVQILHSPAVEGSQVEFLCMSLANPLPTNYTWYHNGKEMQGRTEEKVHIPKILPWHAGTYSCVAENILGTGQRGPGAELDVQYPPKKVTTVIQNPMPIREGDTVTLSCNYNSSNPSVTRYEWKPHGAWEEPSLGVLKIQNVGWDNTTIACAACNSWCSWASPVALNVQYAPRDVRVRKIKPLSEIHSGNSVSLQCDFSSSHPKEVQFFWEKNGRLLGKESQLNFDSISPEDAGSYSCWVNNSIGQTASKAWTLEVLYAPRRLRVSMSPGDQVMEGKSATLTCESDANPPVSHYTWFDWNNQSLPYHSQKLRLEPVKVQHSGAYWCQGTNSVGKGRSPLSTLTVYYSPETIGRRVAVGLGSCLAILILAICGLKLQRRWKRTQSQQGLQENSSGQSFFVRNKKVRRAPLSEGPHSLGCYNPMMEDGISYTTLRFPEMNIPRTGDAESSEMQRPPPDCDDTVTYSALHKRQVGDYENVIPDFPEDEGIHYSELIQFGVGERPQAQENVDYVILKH

B1: CD19 VL-CD22 VL-CD22 VH-CD19 VH-CD8α-4-1BB-CD3ζ CAR (other)
chain: DIVLTQSPKFMSTSVGDRVSVTCKASQNVGTNVAWYQQKPGQSPKPLIYSATYRNSGVPDRFTGSGSGTDFTLTITNVQSKDLADYFCQQYNRYPYTSGGGTKLEIKRGGGGSDIELTQSPSSLAVSVGEKVTMSCKSSQSLLYSSNQKNYLAWYQQKPGQSPKLLIYWASTRESGVPDRFTGSGSGTDFTLTVSSVKAEDLAVYYCQQSYSYPFTFGSGTKLEIKRGSTSGSGKPGSGEGSTKGQVKLQQSGPELVKPGASVKISCKASGYDFSISWMNWVRQRPGQGLEWIGRIYPGDGDSNYNGKFEGKATLTADKSSSTAYMQLSGLTSVDSAVYFCARTTTMIALYAMDYWGQGTTVTVSSGGGGSQVQLQQSGAELVRPGSSVKISCKASGYAFSSYWMNWVKQRPGQGLEWIGQIYPGDGDTNYNGKFKGQATLTADKSSSTAYMQLSGLTSEDSAVYFCARKTISSVVDFYFDYWGQGTTLTVSSEFTTTPAPRPPTPAPTIASQPLSLRPEACRPAAGGAVHTRGLDFACDIYIWAPLAGTCGVLLLSLVITLYKRGRKKLLYIFKQPFMRPVQTTQEEDGCSCRFPEEEEGGCELRVKFSRSADAPAYQQGQNQLYNELNLGRREEYDVLDKRRGRDPEMGGKPRRKNPQEGLYNELQKDKMAEAYSEIGMKGERRRGKGHDGLYQGLSTATKDTYDALHMQALPPR
degranulation level (CD107a on GFP+ cells) after co-culture with MV4-11-CD19 cells, E:T 1:1, 4 h (CD19 antigen molecule): ≥ 25%
degranulation level (CD107a on GFP+ cells) after co-culture with MV4-11-CD22 cells, E:T 1:1, 4 h (CD22 antigen molecule): ≥ 15%

B2: CD22 scFv-CD19 scFv-CD8α-4-1BB-CD3ζ CAR (other)
chain: DIELTQSPSSLAVSVGEKVTMSCKSSQSLLYSSNQKNYLAWYQQKPGQSPKLLIYWASTRESGVPDRFTGSGSGTDFTLTVSSVKAEDLAVYYCQQSYSYPFTFGSGTKLEIKRGGGGSGGGGSGGGGSQVKLQQSGPELVKPGASVKISCKASGYDFSISWMNWVRQRPGQGLEWIGRIYPGDGDSNYNGKFEGKATLTADKSSSTAYMQLSGLTSVDSAVYFCARTTTMIALYAMDYWGQGTTVTVSSEAAAKEAAAKEAAAKEAAAKEAAAKDIVLTQSPKFMSTSVGDRVSVTCKASQNVGTNVAWYQQKPGQSPKPLIYSATYRNSGVPDRFTGSGSGTDFTLTITNVQSKDLADYFCQQYNRYPYTSGGGTKLEIKRGGGGSGGGGSGGGGSQVQLQQSGAELVRPGSSVKISCKASGYAFSSYWMNWVKQRPGQGLEWIGQIYPGDGDTNYNGKFKGQATLTADKSSSTAYMQLSGLTSEDSAVYFCARKTISSVVDFYFDYWGQGTTLTVSSEFTTTPAPRPPTPAPTIASQPLSLRPEACRPAAGGAVHTRGLDFACDIYIWAPLAGTCGVLLLSLVITLYKRGRKKLLYIFKQPFMRPVQTTQEEDGCSCRFPEEEEGGCELRVKFSRSADAPAYQQGQNQLYNELNLGRREEYDVLDKRRGRDPEMGGKPRRKNPQEGLYNELQKDKMAEAYSEIGMKGERRRGKGHDGLYQGLSTATKDTYDALHMQALPPR
degranulation level (CD107a on GFP+ cells) after co-culture with MV4-11-CD19 cells, E:T 1:1, 4 h (CD19 antigen molecule): ≥ 25%
degranulation level (CD107a on GFP+ cells) after co-culture with MV4-11-CD22 cells, E:T 1:1, 4 h (CD22 antigen molecule): ≥ 15%
